We go through ten molecules from PMC7176092, “Development of the first in vivo GPR17 ligand through an iterative drug discovery pipeline: A novel disease-modifying strategy for multiple sclerosis” (PLoS ONE, 2020).

The target of one test is T1, CXCR1 (Homo sapiens, UniProt P25024).
T1 sequence (P25024 1-350): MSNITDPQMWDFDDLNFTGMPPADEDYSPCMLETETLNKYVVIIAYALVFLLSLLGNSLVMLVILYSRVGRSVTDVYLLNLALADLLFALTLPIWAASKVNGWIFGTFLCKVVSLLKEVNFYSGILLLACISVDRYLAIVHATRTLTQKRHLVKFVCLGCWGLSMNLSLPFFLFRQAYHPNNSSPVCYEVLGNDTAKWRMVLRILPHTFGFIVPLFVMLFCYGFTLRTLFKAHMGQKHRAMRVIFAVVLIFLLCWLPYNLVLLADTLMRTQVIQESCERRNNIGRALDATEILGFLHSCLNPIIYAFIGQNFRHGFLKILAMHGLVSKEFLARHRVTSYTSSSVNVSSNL
Nature of the test: Cellular functional assay CXCR1. To be noted: reference agonist.

A further test has as its target T2, CXCR5 (Homo sapiens, UniProt P32302).
T2 sequence (P32302 1-372): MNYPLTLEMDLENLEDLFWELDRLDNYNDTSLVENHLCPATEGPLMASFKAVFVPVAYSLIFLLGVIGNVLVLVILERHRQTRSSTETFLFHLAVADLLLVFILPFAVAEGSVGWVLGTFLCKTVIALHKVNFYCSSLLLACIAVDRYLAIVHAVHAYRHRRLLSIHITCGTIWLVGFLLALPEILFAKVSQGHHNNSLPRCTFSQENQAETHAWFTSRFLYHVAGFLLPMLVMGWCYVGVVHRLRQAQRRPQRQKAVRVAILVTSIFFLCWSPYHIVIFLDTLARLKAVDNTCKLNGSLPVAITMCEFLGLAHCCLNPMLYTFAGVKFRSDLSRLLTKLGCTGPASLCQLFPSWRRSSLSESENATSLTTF
Nature of the test: Cellular functional assay CXCR5. The conditions noted are these: reference agonist.

A further test addresses T3, ADR1A (Homo sapiens, UniProt P35348).
T3 construct: Eurofins Cerep (external service)
T3 sequence (P35348 1-466): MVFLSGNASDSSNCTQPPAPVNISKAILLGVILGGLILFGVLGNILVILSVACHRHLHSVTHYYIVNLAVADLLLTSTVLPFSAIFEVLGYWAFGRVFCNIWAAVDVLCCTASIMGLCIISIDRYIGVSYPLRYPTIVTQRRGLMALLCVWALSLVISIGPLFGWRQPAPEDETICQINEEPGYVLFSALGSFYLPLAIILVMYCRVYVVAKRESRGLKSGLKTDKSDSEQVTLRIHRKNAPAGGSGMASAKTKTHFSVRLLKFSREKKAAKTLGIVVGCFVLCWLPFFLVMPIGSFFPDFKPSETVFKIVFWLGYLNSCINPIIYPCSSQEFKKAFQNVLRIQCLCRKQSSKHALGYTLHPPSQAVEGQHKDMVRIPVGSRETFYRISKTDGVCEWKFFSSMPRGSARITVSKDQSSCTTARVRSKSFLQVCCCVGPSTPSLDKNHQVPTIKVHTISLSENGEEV
Nature of the test: Binding assay ADR1A. To be noted: reference compound.

The target of the next test is T4, CXCR3 (Homo sapiens, UniProt P49682).
T4 sequence (P49682 1-368): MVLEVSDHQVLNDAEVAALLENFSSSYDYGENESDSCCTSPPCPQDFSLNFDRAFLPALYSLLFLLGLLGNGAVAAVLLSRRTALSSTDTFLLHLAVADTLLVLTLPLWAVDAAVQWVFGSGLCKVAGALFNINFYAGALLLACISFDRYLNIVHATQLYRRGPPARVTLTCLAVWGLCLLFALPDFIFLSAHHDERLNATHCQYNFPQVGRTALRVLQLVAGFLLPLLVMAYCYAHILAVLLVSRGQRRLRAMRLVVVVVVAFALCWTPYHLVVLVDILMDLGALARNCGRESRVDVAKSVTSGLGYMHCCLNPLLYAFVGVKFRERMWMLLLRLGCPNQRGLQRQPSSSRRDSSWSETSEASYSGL
Nature of the test: Cellular functional assay CXCR3. To be noted: reference agonist.

The target of the next test is CXCR6 (Homo sapiens, UniProt O00574). Put plainly: Cellular functional assay CXCR6. To be noted: reference agonist.
The next test addresses T5, CCR9 (Homo sapiens, UniProt P51686).
T5 sequence (P51686 1-369): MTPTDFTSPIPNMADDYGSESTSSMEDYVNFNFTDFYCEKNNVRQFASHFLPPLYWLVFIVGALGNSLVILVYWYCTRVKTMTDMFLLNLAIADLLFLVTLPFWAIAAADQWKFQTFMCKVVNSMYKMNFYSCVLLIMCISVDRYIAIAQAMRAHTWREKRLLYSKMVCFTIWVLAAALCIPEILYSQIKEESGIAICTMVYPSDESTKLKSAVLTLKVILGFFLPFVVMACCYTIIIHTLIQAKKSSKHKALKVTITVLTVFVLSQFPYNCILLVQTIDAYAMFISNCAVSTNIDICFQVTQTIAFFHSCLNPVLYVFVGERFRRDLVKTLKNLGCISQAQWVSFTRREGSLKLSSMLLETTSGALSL
Nature of the test: Cellular functional assay CCR9. The conditions noted are these: reference agonist.

Another test addresses T6, CCR10 (Homo sapiens, UniProt P46092).
T6 sequence (P46092 1-362): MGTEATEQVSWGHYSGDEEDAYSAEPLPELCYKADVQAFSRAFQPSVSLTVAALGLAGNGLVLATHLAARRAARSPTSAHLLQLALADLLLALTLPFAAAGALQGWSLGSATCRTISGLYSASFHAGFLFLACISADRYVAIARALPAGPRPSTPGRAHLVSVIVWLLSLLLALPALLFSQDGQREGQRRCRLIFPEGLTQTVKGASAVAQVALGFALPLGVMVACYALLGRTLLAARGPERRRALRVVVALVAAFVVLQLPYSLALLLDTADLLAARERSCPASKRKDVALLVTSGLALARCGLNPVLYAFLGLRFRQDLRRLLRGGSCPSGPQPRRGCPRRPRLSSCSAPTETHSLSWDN
Nature of the test: Cellular functional assay CCR10. The conditions noted are these: reference agonist.

For a further test, the target named is CCR8 (Homo sapiens, UniProt P51685). Nature of the test: Cellular functional assay CCR8. To be noted: reference agonist.
Another test concerns the target CXCR4 (Homo sapiens, UniProt P61073). Nature of the test: Cellular functional assay CXCR4. The conditions noted are these: reference antagonist.
The target in the next test is T7, CCR4 (Homo sapiens, UniProt P51679).
T7 sequence (P51679 1-360): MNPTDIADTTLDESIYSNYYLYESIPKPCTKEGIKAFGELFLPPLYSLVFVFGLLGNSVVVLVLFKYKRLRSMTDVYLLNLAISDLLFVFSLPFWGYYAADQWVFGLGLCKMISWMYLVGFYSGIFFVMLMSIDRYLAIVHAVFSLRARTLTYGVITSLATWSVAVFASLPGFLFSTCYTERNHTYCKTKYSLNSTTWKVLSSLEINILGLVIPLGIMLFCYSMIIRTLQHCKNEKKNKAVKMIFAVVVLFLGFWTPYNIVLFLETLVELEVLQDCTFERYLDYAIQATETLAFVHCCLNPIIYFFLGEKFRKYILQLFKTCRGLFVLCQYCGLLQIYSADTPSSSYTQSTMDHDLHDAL
Put plainly: Cellular functional assay CCR4. The conditions noted are these: reference agonist.

By EC50 is commonly meant the concentration needed to bring the measured effect to its halfway point. Broadly, the IC50 is the point on the concentration scale where inhibition reaches its midpoint. Higher therefore signals a need for much substance.

Chain of CXCR6 (O00574 whole entry): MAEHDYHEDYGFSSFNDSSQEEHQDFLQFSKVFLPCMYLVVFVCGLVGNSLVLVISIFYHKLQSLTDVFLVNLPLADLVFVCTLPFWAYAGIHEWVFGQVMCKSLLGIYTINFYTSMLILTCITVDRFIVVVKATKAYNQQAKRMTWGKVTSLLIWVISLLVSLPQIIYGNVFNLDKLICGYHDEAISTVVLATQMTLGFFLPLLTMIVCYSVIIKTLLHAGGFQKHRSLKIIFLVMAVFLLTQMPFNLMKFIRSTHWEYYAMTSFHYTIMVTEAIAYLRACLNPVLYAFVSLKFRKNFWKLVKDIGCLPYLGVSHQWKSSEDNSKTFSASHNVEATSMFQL
Chain of CXCR4 (P61073 whole entry): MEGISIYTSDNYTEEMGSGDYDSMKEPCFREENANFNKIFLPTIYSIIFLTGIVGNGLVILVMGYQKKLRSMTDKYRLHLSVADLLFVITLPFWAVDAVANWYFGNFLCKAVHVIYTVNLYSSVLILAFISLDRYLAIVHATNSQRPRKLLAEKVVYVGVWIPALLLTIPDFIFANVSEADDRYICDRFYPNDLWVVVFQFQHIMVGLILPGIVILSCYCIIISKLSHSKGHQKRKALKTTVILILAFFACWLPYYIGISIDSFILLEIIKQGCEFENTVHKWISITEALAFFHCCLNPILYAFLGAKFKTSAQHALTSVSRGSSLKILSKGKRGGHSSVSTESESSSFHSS
Chain of CCR8 (P51685 whole entry): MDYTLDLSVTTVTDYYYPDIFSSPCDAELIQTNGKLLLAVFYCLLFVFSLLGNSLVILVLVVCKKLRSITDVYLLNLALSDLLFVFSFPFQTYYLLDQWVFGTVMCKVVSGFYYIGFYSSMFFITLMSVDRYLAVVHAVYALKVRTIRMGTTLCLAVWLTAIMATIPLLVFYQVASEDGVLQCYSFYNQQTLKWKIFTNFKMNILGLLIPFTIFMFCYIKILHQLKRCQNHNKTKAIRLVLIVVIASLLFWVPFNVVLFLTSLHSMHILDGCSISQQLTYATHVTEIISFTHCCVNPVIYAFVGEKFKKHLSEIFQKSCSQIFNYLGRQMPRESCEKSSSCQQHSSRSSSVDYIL

Molecule “rhIL-8: recombinant chemokine, reference agonist for CXCR1” displayed an EC50 with CXCR1 of 4.7 nM.
Consider “CXCL13/BLC/BCA-1: chemokine, reference agonist for CXCR5”, for which, in the test with CXCR5, a half-maximal effect (EC50) was put at 3.8 nM.
`COc1cccc(OC)c1OCCNCC1COc2ccccc2O1` (stereo not shown) [WB 4101, reference compound] had an IC50 at ADR1A of 0.39 nM.
“I-TAC: chemokine, reference agonist for CXCR3” came in with an EC50 with CXCR3 of 2.3 nM.

B1: CXCL16: chemokine, reference agonist for CXCR6 (protein, UniProt Q9H2A7 30-254, looked up)
C-X-C motif chemokine 16: NEGSVTGSCYCGKRISSDSPPSVQFMNRLRKHLRAYHRCLYYTRFQLLSWSVCGGNKDPWVQELMSCLDLKECGHAYSGIVAHQKHLLPTSPPISQASEGASSDIHTPAQMLLSTLQSTQRPTLPVGSLSSDKELTRPNETTIHTAGHSLAAGPEAGENQKQPEKNAGPTARTSATVPVLCLLAIIFILTAALSYVLCKRRRGQSPQSSPDLPVHYIPVAPDSNT
In the test with CXCR6, B1 gave an EC50 of 1.6 nM.

B2: CCL25: chemokine, reference agonist for CCR9 (protein, UniProt O15444 24-150, looked up)
C-C motif chemokine 25: QGVFEDCCLAYHYPIGWAVLRRAWTYRIQEVSGSCNLPAAIFYLPKRHRKVCGNPKSREVQRAMKLLDARNKVFAKLHHNTQTFQAGPHAVKKLSSGNSKLSSSKFSNPISSSKRNVSLLISANSGL
As for B2, in the test with CCR9, the response was half-maximal at 2 nM (EC50).

B3: CTACK/CCL27: chemokine, reference agonist for CCR10 (protein, UniProt Q9Y4X3 25-112, looked up)
C-C motif chemokine 27: FLLPPSTACCTQLYRKPLSDKLLRKVIQVELQEADGDCHLQAFVLHLAQRSICIHPQNPSLSQWFEHQERKLHGTLPKLNFGMLRKMG
B3 came in with an EC50 with CCR10 of 5 nM.

B4: I-309: chemokine, reference agonist for CCR8 (protein, UniProt P22362 24-96, looked up)
C-C motif chemokine 1: KSMQVPFSRCCFSFAEQEIPLRAILCYRNTSSICSNEGLIFKLKRGKEACALDTVGWVQRHRKMLRHCPSKRK
For the molecule B4, a half-maximal response with CCR8 (EC50) required 0.72 nM.

B5: MIP-II: reference antagonist for CXCR4 (protein)
chain: LGASWHRPDKCCLGYQKRPLPQVLLSSWYPTSQLCSKPGVIFLTKRGRQVCADKSKDWVKKLMQQLPVTAR
In the test with CXCR4, B5 registered an IC50 of 150 nM.

B6: TARC: chemokine, reference agonist for CCR4 (protein, UniProt Q92583 24-94, looked up)
C-C motif chemokine 17: ARGTNVGRECCLEYFKGAIPLRKLKTWYQTSEDCSRDAIVFVTVQGRAICSDPNNKRVKNAVKYLQSLERS
Regarding B6, in the test with CCR4, the concentration giving a half-maximal response (EC50) is 0.34 nM.
